Reference: paper doi:10.1101/2025.11.20.689565, “Phosphorylation remodels the mitotic centrosome matrix to generate bipartite γ-tubulin complex docking sites” (bioRxiv, 2025)

T1: untagged SPD-5 aa 101-473, not phosphorylated (C. elegans, UniProt P91349 101-473)
T1 construct: source: E. coli BL21(DE3) pLysS, purified (glutathione agarose, cleaved off GST)
T1 sequence (looked up): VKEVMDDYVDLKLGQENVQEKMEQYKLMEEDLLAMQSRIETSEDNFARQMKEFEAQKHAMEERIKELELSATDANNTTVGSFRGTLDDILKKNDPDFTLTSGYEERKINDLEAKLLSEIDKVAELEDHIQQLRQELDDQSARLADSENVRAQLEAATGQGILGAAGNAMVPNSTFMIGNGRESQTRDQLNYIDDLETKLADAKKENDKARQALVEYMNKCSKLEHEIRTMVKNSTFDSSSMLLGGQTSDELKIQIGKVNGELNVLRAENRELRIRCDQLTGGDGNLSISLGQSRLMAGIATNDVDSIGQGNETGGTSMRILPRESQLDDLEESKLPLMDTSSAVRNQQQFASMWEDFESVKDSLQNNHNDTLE


Key:
[1] = biological target: the molecule itself; assay: SEC-MALS; Superose 6 increase 10/300 or Superdex 200 increase 10/300 in 20 mM Tris-HCl pH 7.5, 50 mM NaCl, 5 mM EGTA, 2 mM MgCl2, 1 mM DTT; 120 μL of ~2.0 mg/ml protein loaded; with or without PLK1 phosphorylation
[2] = biological target: T1, untagged SPD-5 aa 101-473, not …; assay: pull-down; MBP pull-down: purified SPD-5 fragments mixed at 2.0 μM with or without 500 nM PLK1(T194D) in kinase buffer 1 h at 23°C; then 75 nM each with 2 μg anti-MBP antibody in lysis buffer 2 h at 4°C and protein A beads 1 h at 4°C; five washes; immunoblot or Coomassie; conditions: both partners purified

Binder | stoichiometry N [1] | binding result [2]
MBP-6His-HA (M6HH)-tagged SPD-5 aa 1-345, not phosphorylated (domain or fragment, C. elegans, UniProt P91349 1-345, looked up, source: E. coli BL21(DE3) pLysS, purified (Ni-NTA)) MEDNSVLNEDSNLEHVEGQPRRSMSQPVLNVEGDKRTSSTSATQQQVLSGAFSSADVRSIPIIQTWEENKALKTKITILRGELQMYQRRYSEAKEASQKRVKEVMDDYVDLKLGQENVQEKMEQYKLMEEDLLAMQSRIETSEDNFARQMKEFEAQKHAMEERIKELELSATDANNTTVGSFRGTLDDILKKNDPDFTLTSGYEERKINDLEAKLLSEIDKVAELEDHIQQLRQELDDQSARLADSENVRAQLEAATGQGILGAAGNAMVPNSTFMIGNGRESQTRDQLNYIDDLETKLADAKKENDKARQALVEYMNKCSKLEHEIRTMVKNSTFDSSSMLLGG | 2 | –
untagged SPD-5 aa 1-473, not phosphorylated (domain or fragment, C. elegans, UniProt P91349 1-473, looked up, also called SPD-5 N-terminus; source: E. coli BL21(DE3) pLysS, purified (glutathione agarose, cleaved off GST)) MEDNSVLNEDSNLEHVEGQPRRSMSQPVLNVEGDKRTSSTSATQQQVLSGAFSSADVRSIPIIQTWEENKALKTKITILRGELQMYQRRYSEAKEASQKRVKEVMDDYVDLKLGQENVQEKMEQYKLMEEDLLAMQSRIETSEDNFARQMKEFEAQKHAMEERIKELELSATDANNTTVGSFRGTLDDILKKNDPDFTLTSGYEERKINDLEAKLLSEIDKVAELEDHIQQLRQELDDQSARLADSENVRAQLEAATGQGILGAAGNAMVPNSTFMIGNGRESQTRDQLNYIDDLETKLADAKKENDKARQALVEYMNKCSKLEHEIRTMVKNSTFDSSSMLLGGQTSDELKIQIGKVNGELNVLRAENRELRIRCDQLTGGDGNLSISLGQSRLMAGIATNDVDSIGQGNETGGTSMRILPRESQLDDLEESKLPLMDTSSAVRNQQQFASMWEDFESVKDSLQNNHNDTLE | 2 | –
untagged SPD-5 aa 1-473, PLK1-phosphorylated (domain or fragment, C. elegans, UniProt P91349 1-473, looked up, phosphorylated in vitro by PLK1(T194D); sites not all mapped (predicted PLK1 sites S5, S11, S170, T178, T198, T274, T335, S339, S340), source: E. coli BL21(DE3) pLysS, purified (glutathione agarose, cleaved off GST); incubated with PLK1-6His and ATP) MEDNSVLNEDSNLEHVEGQPRRSMSQPVLNVEGDKRTSSTSATQQQVLSGAFSSADVRSIPIIQTWEENKALKTKITILRGELQMYQRRYSEAKEASQKRVKEVMDDYVDLKLGQENVQEKMEQYKLMEEDLLAMQSRIETSEDNFARQMKEFEAQKHAMEERIKELELSATDANNTTVGSFRGTLDDILKKNDPDFTLTSGYEERKINDLEAKLLSEIDKVAELEDHIQQLRQELDDQSARLADSENVRAQLEAATGQGILGAAGNAMVPNSTFMIGNGRESQTRDQLNYIDDLETKLADAKKENDKARQALVEYMNKCSKLEHEIRTMVKNSTFDSSSMLLGGQTSDELKIQIGKVNGELNVLRAENRELRIRCDQLTGGDGNLSISLGQSRLMAGIATNDVDSIGQGNETGGTSMRILPRESQLDDLEESKLPLMDTSSAVRNQQQFASMWEDFESVKDSLQNNHNDTLE | 2 | –
MBP-6His-HA (M6HH)-tagged SPD-5 aa 1-473, not phosphorylated (domain or fragment, C. elegans, UniProt P91349 1-473, looked up, source: E. coli BL21(DE3) pLysS, purified (Ni-NTA)) MEDNSVLNEDSNLEHVEGQPRRSMSQPVLNVEGDKRTSSTSATQQQVLSGAFSSADVRSIPIIQTWEENKALKTKITILRGELQMYQRRYSEAKEASQKRVKEVMDDYVDLKLGQENVQEKMEQYKLMEEDLLAMQSRIETSEDNFARQMKEFEAQKHAMEERIKELELSATDANNTTVGSFRGTLDDILKKNDPDFTLTSGYEERKINDLEAKLLSEIDKVAELEDHIQQLRQELDDQSARLADSENVRAQLEAATGQGILGAAGNAMVPNSTFMIGNGRESQTRDQLNYIDDLETKLADAKKENDKARQALVEYMNKCSKLEHEIRTMVKNSTFDSSSMLLGGQTSDELKIQIGKVNGELNVLRAENRELRIRCDQLTGGDGNLSISLGQSRLMAGIATNDVDSIGQGNETGGTSMRILPRESQLDDLEESKLPLMDTSSAVRNQQQFASMWEDFESVKDSLQNNHNDTLE | 2 | –
MBP-6His-HA (M6HH)-tagged SPD-5 aa 1-101, not phosphorylated (domain or fragment, C. elegans, UniProt P91349 1-101, looked up, also called PRGB1; source: E. coli BL21(DE3) pLysS, purified (Ni-NTA)) MEDNSVLNEDSNLEHVEGQPRRSMSQPVLNVEGDKRTSSTSATQQQVLSGAFSSADVRSIPIIQTWEENKALKTKITILRGELQMYQRRYSEAKEASQKRV | – | binds
